Target: collagen I coupled to the Biacore CM5 chip (UniProt P02452)
Test: SPR; Biacore; SPARC-WT and SPARC-Fut8KO on collagen I; responses compared at 300 s; sensorgrams shown in Fig. 2C of Ref. [20]

Chain of UniProt P02452 (P02452 23-1218, chain 1 of 2): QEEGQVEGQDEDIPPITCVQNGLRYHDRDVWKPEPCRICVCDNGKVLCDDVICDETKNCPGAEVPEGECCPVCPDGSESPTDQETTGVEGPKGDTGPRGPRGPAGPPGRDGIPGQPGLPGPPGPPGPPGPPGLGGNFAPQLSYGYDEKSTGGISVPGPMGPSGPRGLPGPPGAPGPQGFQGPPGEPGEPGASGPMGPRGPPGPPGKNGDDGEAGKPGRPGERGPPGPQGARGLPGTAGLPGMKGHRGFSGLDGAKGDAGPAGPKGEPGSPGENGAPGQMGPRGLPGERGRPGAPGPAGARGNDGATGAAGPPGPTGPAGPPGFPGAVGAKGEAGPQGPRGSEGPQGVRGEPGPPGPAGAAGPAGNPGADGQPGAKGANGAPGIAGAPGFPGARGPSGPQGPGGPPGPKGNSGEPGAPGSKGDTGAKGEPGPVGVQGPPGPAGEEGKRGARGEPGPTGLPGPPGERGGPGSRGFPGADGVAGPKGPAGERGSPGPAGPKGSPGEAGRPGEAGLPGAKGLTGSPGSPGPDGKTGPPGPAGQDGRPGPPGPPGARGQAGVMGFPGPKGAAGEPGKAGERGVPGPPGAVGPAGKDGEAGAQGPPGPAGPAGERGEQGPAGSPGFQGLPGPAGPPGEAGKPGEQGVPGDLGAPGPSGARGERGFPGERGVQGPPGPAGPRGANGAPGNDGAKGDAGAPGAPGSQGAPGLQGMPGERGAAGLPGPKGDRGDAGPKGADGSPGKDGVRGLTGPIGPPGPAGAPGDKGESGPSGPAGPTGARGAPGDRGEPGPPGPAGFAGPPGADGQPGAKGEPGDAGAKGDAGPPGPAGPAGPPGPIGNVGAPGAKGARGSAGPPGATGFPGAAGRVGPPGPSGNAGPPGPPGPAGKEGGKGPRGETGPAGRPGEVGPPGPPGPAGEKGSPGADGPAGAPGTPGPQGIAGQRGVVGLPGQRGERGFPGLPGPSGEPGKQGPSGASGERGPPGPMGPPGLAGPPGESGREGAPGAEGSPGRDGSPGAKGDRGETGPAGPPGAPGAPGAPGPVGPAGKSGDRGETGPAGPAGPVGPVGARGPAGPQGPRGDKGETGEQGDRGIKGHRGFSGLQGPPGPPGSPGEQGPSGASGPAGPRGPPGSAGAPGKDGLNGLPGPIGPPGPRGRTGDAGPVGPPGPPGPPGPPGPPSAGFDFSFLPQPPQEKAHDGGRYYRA
Chain of UniProt P02452 (P08123 80-1119, chain 2 of 2, further chain): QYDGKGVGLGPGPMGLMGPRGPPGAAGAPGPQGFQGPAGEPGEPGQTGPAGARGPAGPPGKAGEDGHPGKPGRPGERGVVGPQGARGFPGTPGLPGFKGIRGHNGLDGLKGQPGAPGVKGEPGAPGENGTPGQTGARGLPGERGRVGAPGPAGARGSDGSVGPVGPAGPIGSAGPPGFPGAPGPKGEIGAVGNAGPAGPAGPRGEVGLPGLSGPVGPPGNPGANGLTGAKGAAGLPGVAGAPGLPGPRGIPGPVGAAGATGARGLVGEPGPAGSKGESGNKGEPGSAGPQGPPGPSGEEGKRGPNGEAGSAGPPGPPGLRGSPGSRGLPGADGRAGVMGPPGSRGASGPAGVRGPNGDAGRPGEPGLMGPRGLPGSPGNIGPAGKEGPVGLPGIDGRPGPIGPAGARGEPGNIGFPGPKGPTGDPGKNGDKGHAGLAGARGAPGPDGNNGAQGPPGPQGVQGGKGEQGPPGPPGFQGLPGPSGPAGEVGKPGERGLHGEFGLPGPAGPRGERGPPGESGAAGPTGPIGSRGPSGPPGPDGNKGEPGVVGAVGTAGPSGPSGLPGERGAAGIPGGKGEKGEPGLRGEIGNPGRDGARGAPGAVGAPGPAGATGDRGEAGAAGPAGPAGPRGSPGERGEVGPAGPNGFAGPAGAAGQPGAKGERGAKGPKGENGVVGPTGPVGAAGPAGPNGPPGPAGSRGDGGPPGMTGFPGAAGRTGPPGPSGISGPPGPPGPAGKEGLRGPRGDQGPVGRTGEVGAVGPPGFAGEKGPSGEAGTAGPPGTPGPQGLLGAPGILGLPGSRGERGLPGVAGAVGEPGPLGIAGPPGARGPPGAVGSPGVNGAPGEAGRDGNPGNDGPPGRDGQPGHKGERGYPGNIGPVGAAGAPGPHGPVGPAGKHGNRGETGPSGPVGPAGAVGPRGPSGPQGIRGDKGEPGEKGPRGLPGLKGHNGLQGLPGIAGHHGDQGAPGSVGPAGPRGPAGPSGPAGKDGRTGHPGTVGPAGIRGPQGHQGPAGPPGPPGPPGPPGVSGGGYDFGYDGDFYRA

B1: recombinant His-tagged human SPARC from FUT8-knockout HEK-293T cells (SPARC-Fut8KO), not core-fucosylated (natural protein)
chain: APQQEALPDETEVVEETVAEVTEVSVGANPVQVEVGEFDDGAEETEEEVVAENPCQNHHCKHGKVCELDENNTPMCVCQDPTSCPAPIGEFEKVCSNDNKTFDSSCHFFATKCTLEGTKKGHKLHLDYIGPCKYIPPCLDSELTEFPLRMRDWLKNVLVTLYERDEDNNLLTEKQKLRVKKIHENEKRLEAGDHPVELLARDFEKNYNMYIFPVHWQFGQLDQHPIDGYLSHTELAPLRAPLIPMEHCTTRFFETCDLDNDKYIALDEWAGCFGIKQKDIDKDLVI
modifications: not core-fucosylated at N116
- binding response (RU) relative to SPARC-WT at 300 s: 40%

Reference: paper PMC9174126
